Data taken from US20240409645A1 (DUALYX, published 2024).
Substitutions are numbered along the chain they refer to. Each block holds one binder with its values, some of them ahead of it.

Columns and labels:
human IL-2Rβ [1] = target: T1, human IL-2Rβ (human, UniProt P14784 27-240, limits assumed); test: SPR, P.E. off-rate
T1 construct: recombinant protein, coated or immobilised; also called hu IL-2R; IL-2R beta
T1 sequence: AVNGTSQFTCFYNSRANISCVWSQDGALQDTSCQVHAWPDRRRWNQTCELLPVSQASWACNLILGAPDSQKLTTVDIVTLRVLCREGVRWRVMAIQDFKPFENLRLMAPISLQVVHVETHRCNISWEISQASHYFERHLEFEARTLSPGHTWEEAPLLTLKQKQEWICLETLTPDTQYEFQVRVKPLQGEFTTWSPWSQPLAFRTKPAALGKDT
Summary of the method: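 Immobilised receptor density: ~2500 RU (CM5, amine coupling). Analyte: VHH-containing P.E., 30 uL/min. Read-out: off-rate over 120s.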

human IL-2Rβ [2] = target: T1, human IL-2Rβ; test: P.E. ELISA, coated protein
Summary of the method: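 Read-out: OD at 450 nm, specificity called versus negative controls. Receptor chains (human or mouse IL-2Rα, β, γ) were coated directly overnight at 4° C; 4% Marvel/PBS block 1 h; P.E. at 1:5 dilution in 1% Marvel/PBS incubated 1 h.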

koff (human IL-2Rβ [1]): 0.000307 s⁻¹
P.E. binding ELISA OD (human IL-2Rβ [2]): 0.974 OD450 nm
B5: FJ1427_P035MP02G10 (VHH)
VHH: QVQLVESGGGLVQAGGSLRLSCAASGRTFSTTEMGWFRQAPGKEREFVAAITWTGRGTMYAESVEGRFTISRENAKNMVYLQMNSLKPEDTAIYYCAAARRGRAAVRSEGGYDFWGQGTQVTVSS
notes: soluble VHH in periplasmic extract; also called clone nr

koff (human IL-2Rβ [1]): 0.00105 s⁻¹
P.E. binding ELISA OD (human IL-2Rβ [2]): 0.54 OD450 nm
B9: FJ1427_P035MP06F03 (VHH)
VHH: QVQLVESGGGLVQAGGSLRLSCAVSGDVFVRYTMAWFRQAPGKEREFVASVTDSGRTTDYVHSVKGRFTVSRDNAKNTVYLQMNNLKPEDTAVYYCAANTDYFQIKSLDANTWGQGTQVTVSS
notes: soluble VHH in periplasmic extract; also called 23-MP06F03; clone nr; 502

koff (human IL-2Rβ [1]): 0.000363 s⁻¹
P.E. binding ELISA OD (human IL-2Rβ [2]): 1.03 OD450 nm
B10: FJ1427_P035MP06A07 (VHH)
VHH: B9 VHH with V5Q, V24A, D59E, H62D, V79A, V93I, K106R, A110L
notes: soluble VHH in periplasmic extract; also called 26-MP06A07; clone nr

koff (human IL-2Rβ [1]): 0.000259 s⁻¹
P.E. binding ELISA OD (human IL-2Rβ [2]): 0.636 OD450 nm
B12: FJ1427_P035MP02G07 (VHH)
VHH: B9 VHH with D59E, H62D, V79A, K106R, A110L
notes: as for B5

koff (human IL-2Rβ [1]): 0.00153 s⁻¹
P.E. binding ELISA OD (human IL-2Rβ [2]): 0.614 OD450 nm
B13: FJ1427_P035MP02F08 (VHH)
VHH: QVQLVESGGGLVQAGGSLRLSCAASGSIFSLNTMGWFRQAPGKEREFVAAISRSGGSATYGDSVKGRFTISTNNAKTTVYLQMNSLKPDDTAVYSCAASAAVGWTTRWSTIDFDSWGQGTQVTVSS
notes: as for B5

Second part, the binder before the results:

B1: FJ1427 P035MP02E11 (VHH)
VHH: QVQLQESGGGLVQAGGSLRLSCAASGRTFSNYVMAWFRQAPGKEREFVGAITQTGRGTFYADSVEGRFTISRINDKNTVYLQMNSLKPEDTAVYYCSAPRSGRAGTRNQMDYEYWGQGTQVTVSS
notes: as for B5
koff (human IL-2Rβ [1]): 0.00188 s⁻¹
P.E. binding ELISA OD (human IL-2Rβ [2]): 0.529 OD450 nm

B2: FJ1427_P035MP02H08 (VHH)
VHH: EVQLVESGGGLVQAGDSLRISCAASGRIFSNYAMGWFRQAPGKETEFVAGITHLTSTTHYADSVKGRFTISRDNAKNTMHLQMNNLKPEDTALYYCAADRNIKITADWSYWGQGTQVTVAS
notes: soluble VHH in periplasmic extract; also called clone nr; 160
koff (human IL-2Rβ [1]): 0.000731 s⁻¹
P.E. binding ELISA OD (human IL-2Rβ [2]): 0.885 OD450 nm

B3: FJ1427 P035MP02D11 (VHH)
VHH: B2 VHH with E1Q, V5Q
notes: soluble VHH in periplasmic extract; also called clone nr; 180
koff (human IL-2Rβ [1]): 0.000833 s⁻¹
P.E. binding ELISA OD (human IL-2Rβ [2]): 0.463 OD450 nm

B4: FJ1427 P035MP02D10 (VHH)
VHH: EVQLVESGGGLVQAGGSLRLSCAASGRTFSSDAKAWFRQAPGKEREFVAAITWAGRGTDYADSVKDRFTITRDNAKNMVYLQMSSLKPEDTAVYYCALNPTGVIGPGFRNSNRYDYWGQGTQVTVAS
notes: as for B5
koff (human IL-2Rβ [1]): 0.00109 s⁻¹
P.E. binding ELISA OD (human IL-2Rβ [2]): 0.557 OD450 nm

B6: FJ1427 P035MP02C11 (VHH)
VHH: B9 VHH with D59E, H62D, N85S, K106R, D109R
notes: as for B5
koff (human IL-2Rβ [1]): 0.000433 s⁻¹
P.E. binding ELISA OD (human IL-2Rβ [2]): 1.57 OD450 nm

B7: FJ1427_P035MP02E07 (VHH)
VHH: B9 VHH with R19G, S21A, V24L, H62A, K65Q, A75N, N85S, K106R, A110R
notes: as for B5
koff (human IL-2Rβ [1]): 0.000577 s⁻¹
P.E. binding ELISA OD (human IL-2Rβ [2]): 0.541 OD450 nm

B8: FJ1427 P035MP02F07 (VHH)
VHH: B9 VHH with V24A, H62D, V93R, K106R
notes: soluble VHH in periplasmic extract; also called clone nr; 150
koff (human IL-2Rβ [1]): 0.00164 s⁻¹
P.E. binding ELISA OD (human IL-2Rβ [2]): 0.848 OD450 nm

B11: FJ1427_P035MP02A09 (VHH)
VHH: B9 VHH with D59E, H62D, V64A, N85S, K106R, D109R
notes: as for B5
koff (human IL-2Rβ [1]): 0.000617 s⁻¹
P.E. binding ELISA OD (human IL-2Rβ [2]): 1.3 OD450 nm

B14: FJ1427 P035MP02C08 (VHH)
VHH: EVQLVESGGGLVQAGGSLRLSCAASGSTFSRQPMYWFRQAPGKEREFVAAITWSGRGTLYADSVEGRFTISRDNAKNTVYLQMNSLRPDDTAAYYCAAGPYGDAAYRHGRIDSWGQGTQVTVSS
notes: as for B5
koff (human IL-2Rβ [1]): 0.00333 s⁻¹
P.E. binding ELISA OD (human IL-2Rβ [2]): 0.254 OD450 nm

B15: FJ1427 P035MP02A10 (VHH)
VHH: QLQLVESGGGLVQTGTSLRLSCAASGHTSRINAMGWFRQFPGKEREFVAAISRNGGSTVYVDSVKGRFTISRDNAKSTVYLQMNSLKPEDTAVYYCTATDAVGWTTRWMTADFGFWGQGTQVTVSS
notes: as for B5
koff (human IL-2Rβ [1]): 0.00226 s⁻¹
P.E. binding ELISA OD (human IL-2Rβ [2]): 0.359 OD450 nm
